Among the data in the Human Domainome abundance scans (Beltran et al. 2025) are abundance fitness values, retold here.

B1: Protein maelstrom homolog, residues 3 to 71; numbered along this chain, Q96JY0 (parent)
chain: NRKASRNAYYFFVQEKIPELRRRGLPVARVADAIPYCSSDWALLREEEKEKYAEMAREWRAAQGKDPGP

± gives the uncertainty stated by the source.

In this data set the parent is B1. The data set is described as follows: abundance fitness (aPCA) (normalised: wild type 0, dead -1); higher = more abundant; growth selection in yeast, the domain comes from the species named. As to conditions: Homo sapiens.
Consider NRKASRNAYYFFVQEKIAELRRRGLPVARVADAIPYCSSDWALLREEEKEKYAEMAREWRAAQGKDPGP [P18A], for which the abundance fitness is -0.376 ± 0.067.

NRKASRNAYYFFVQEKISELRRRGLPVARVADAIPYCSSDWALLREEEKEKYAEMAREWRAAQGKDPGP [P18S]: the abundance fitness is -0.4 ± 0.071.

Regarding NRKASRNAYYFFVQEKIYELRRRGLPVARVADAIPYCSSDWALLREEEKEKYAEMAREWRAAQGKDPGP [P18Y], the abundance fitness was -0.673 ± 0.25.

On to NRKASRNAYYFFVQEKIVELRRRGLPVARVADAIPYCSSDWALLREEEKEKYAEMAREWRAAQGKDPGP [P18V], for which the abundance fitness is -0.268 ± 0.057.

As for NRKASRNAYYFFVQEKIMELRRRGLPVARVADAIPYCSSDWALLREEEKEKYAEMAREWRAAQGKDPGP [P18M], the abundance fitness is -0.263 ± 0.097.

As to NRKASRNAYYFFVQEKIPELRHRGLPVARVADAIPYCSSDWALLREEEKEKYAEMAREWRAAQGKDPGP [R22H], the abundance fitness was -0.036 ± 0.15.

Take NRKASRNAYYFFVQEKIPELRVRGLPVARVADAIPYCSSDWALLREEEKEKYAEMAREWRAAQGKDPGP [R22V]: the abundance fitness is -0.738 ± 0.12.

With NRKASRNAYYFFVQEKIPELRTRGLPVARVADAIPYCSSDWALLREEEKEKYAEMAREWRAAQGKDPGP [R22T], the abundance fitness is -0.242 ± 0.087.

Consider NRKASRNAYYFFVQEKIPELRLRGLPVARVADAIPYCSSDWALLREEEKEKYAEMAREWRAAQGKDPGP [R22L], for which the abundance fitness was -0.11 ± 0.065.

Turning to NRKASRNAYYFFVQEKIPELRWRGLPVARVADAIPYCSSDWALLREEEKEKYAEMAREWRAAQGKDPGP [R22W], the abundance fitness was -0.557 ± 0.09.

Consider NRKASRNAYYFFVQEKIPELRIRGLPVARVADAIPYCSSDWALLREEEKEKYAEMAREWRAAQGKDPGP [R22I], for which the abundance fitness was -0.732 ± 0.23.

Take NRKASRNAYYFFVQEKIPELRPRGLPVARVADAIPYCSSDWALLREEEKEKYAEMAREWRAAQGKDPGP [R22P]: the abundance fitness was -0.763 ± 0.13.

Regarding NRKASRNAYYFFVQEKIPELRSRGLPVARVADAIPYCSSDWALLREEEKEKYAEMAREWRAAQGKDPGP [R22S], the abundance fitness was -0.046 ± 0.058.

NRKASRNAYYFFVQEKIPELRMRGLPVARVADAIPYCSSDWALLREEEKEKYAEMAREWRAAQGKDPGP [R22M]: the abundance fitness was -0.261 ± 0.085.

Take NRKASRNAYYFFVQEKIPELRCRGLPVARVADAIPYCSSDWALLREEEKEKYAEMAREWRAAQGKDPGP [R22C]: the abundance fitness was -0.791 ± 0.22.

In the case of NRKASRNAYYFFVQEKIPELRNRGLPVARVADAIPYCSSDWALLREEEKEKYAEMAREWRAAQGKDPGP [R22N], the abundance fitness is -0.154 ± 0.12.

With NRKASRNAYYFFVQEKIPELRARGLPVARVADAIPYCSSDWALLREEEKEKYAEMAREWRAAQGKDPGP [R22A], the abundance fitness came to 0.006 ± 0.063.

NRKASRNAYYFFVQEKIPELRGRGLPVARVADAIPYCSSDWALLREEEKEKYAEMAREWRAAQGKDPGP [R22G]: the abundance fitness is -0.14 ± 0.073.

Consider NRKASRNAYYFFVQEKIPELRDRGLPVARVADAIPYCSSDWALLREEEKEKYAEMAREWRAAQGKDPGP [R22D], for which the abundance fitness was -0.079 ± 0.12.

For NRKASRNAYYFFVQEKIPELRKRGLPVARVADAIPYCSSDWALLREEEKEKYAEMAREWRAAQGKDPGP [R22K], the abundance fitness came out at 0.162 ± 0.1.

In the case of NRKASRNAYYFFVQEKIPEHRRRGLPVARVADAIPYCSSDWALLREEEKEKYAEMAREWRAAQGKDPGP [L20H], the abundance fitness is -0.953 ± 0.26.

As to NRKASRNAYYFFVQEKIPENRRRGLPVARVADAIPYCSSDWALLREEEKEKYAEMAREWRAAQGKDPGP [L20N], the abundance fitness is -0.642 ± 0.22.

In the case of NRKASRNAYYFFVQEKIPERRRRGLPVARVADAIPYCSSDWALLREEEKEKYAEMAREWRAAQGKDPGP [L20R], the abundance fitness is -0.959 ± 0.081.

As for NRKASRNAYYFFVQEKIPEVRRRGLPVARVADAIPYCSSDWALLREEEKEKYAEMAREWRAAQGKDPGP [L20V], the abundance fitness was -0.677 ± 0.08.

Take NRKASRNAYYFFVQEKIPEMRRRGLPVARVADAIPYCSSDWALLREEEKEKYAEMAREWRAAQGKDPGP [L20M]: the abundance fitness was -0.334 ± 0.15.

In the case of NRKASRNAYYFFVQEKIPEARRRGLPVARVADAIPYCSSDWALLREEEKEKYAEMAREWRAAQGKDPGP [L20A], the abundance fitness is -1.1 ± 0.12.

As to NRKASRNAYYFFVQEKIPEGRRRGLPVARVADAIPYCSSDWALLREEEKEKYAEMAREWRAAQGKDPGP [L20G], the abundance fitness was -0.739 ± 0.068.

On to NRKASRNAYYFFVQEKIPESRRRGLPVARVADAIPYCSSDWALLREEEKEKYAEMAREWRAAQGKDPGP [L20S], for which the abundance fitness is -0.844 ± 0.11.

In the case of NRKASRNAYYFFVQEKIPEWRRRGLPVARVADAIPYCSSDWALLREEEKEKYAEMAREWRAAQGKDPGP [L20W], the abundance fitness was -0.673 ± 0.12.

For the variant NRKASRNAYYFFVQEKIPECRRRGLPVARVADAIPYCSSDWALLREEEKEKYAEMAREWRAAQGKDPGP [L20C], the abundance fitness was -0.611 ± 0.17.

For NRKASRNAYYFFVQEKIPEKRRRGLPVARVADAIPYCSSDWALLREEEKEKYAEMAREWRAAQGKDPGP [L20K], the abundance fitness was -0.88 ± 0.16.

Regarding NRKASRNAYYFFVQEKIPEPRRRGLPVARVADAIPYCSSDWALLREEEKEKYAEMAREWRAAQGKDPGP [L20P], the abundance fitness was -0.989 ± 0.14.

Turning to NRKASRNAYYFFVQEKIPEDRRRGLPVARVADAIPYCSSDWALLREEEKEKYAEMAREWRAAQGKDPGP [L20D], the abundance fitness was -0.772 ± 0.16.

Regarding NRKASRNAYYFFVQEKIPEIRRRGLPVARVADAIPYCSSDWALLREEEKEKYAEMAREWRAAQGKDPGP [L20I], the abundance fitness is -0.636 ± 0.21.

As to NRKASRNAYYFFVQEKIPETRRRGLPVARVADAIPYCSSDWALLREEEKEKYAEMAREWRAAQGKDPGP [L20T], the abundance fitness was -0.62 ± 0.11.

For NRKASRNAYYFFVQEKIPEQRRRGLPVARVADAIPYCSSDWALLREEEKEKYAEMAREWRAAQGKDPGP [L20Q], the abundance fitness is -0.797 ± 0.12.

Regarding NRKASRNAYYFFVQEKIPELERRGLPVARVADAIPYCSSDWALLREEEKEKYAEMAREWRAAQGKDPGP [R21E], the abundance fitness was -0.496 ± 0.29.

For the variant NRKASRNAYYFFVQEKIPELLRRGLPVARVADAIPYCSSDWALLREEEKEKYAEMAREWRAAQGKDPGP [R21L], the abundance fitness was -0.024 ± 0.24.

As to NRKASRNAYYFFVQEKIPELGRRGLPVARVADAIPYCSSDWALLREEEKEKYAEMAREWRAAQGKDPGP [R21G], the abundance fitness is 0.058 ± 0.47.
